What was measured:
Type in all cases: biochemical
Details in all cases: cell-free reaction with CLDS and DMAPP (CLPP donor), 28° C., 48 hours, QTOF LC/MS, with vs without prenyltransferase
[1] = cell-free cyclolavandulylation activity screening of prenyltransferases, substrate luteolin
Excerpt: (§1) Genes encoding the following prenyltransferases were codon-optimized, synthesized, and cloned into the pET28a vector for protein expression and isolation/purification as described in Example 1. • NphB (Accession: 1ZB6_A) (SEQ ID NO: 8) • AbPT (Accession: KPI30840.1) (SEQ ID NO: 9) • SkPT (Accession: Q2L6E3.1) (SEQ ID NO: 10) • SvPT (Accession: WP_078899560.1) (SEQ ID NO: 11) • Sr1310PT (Accession: WP_057602682.1) (SEQ ID NO: 12) • NapT8 (Accession: ABS50461.1) (SEQ ID NO: 13) • NapT9 (Accession: ABS50490.1) (SEQ ID NO: 14) • Mcl23PT (Accession: AGH68908.1) (SEQ ID NO: 15) • CnqP3PT (Accession: WP_047018069.1) (SEQ ID NO: 16) • AtaWTPT (Accession: AMB20850.1) (SEQ ID NO: 17) • MzPT1 (Accession: WP_135330628.1) (SEQ ID NO: 18) • MzPT2 (Accession: WP_135330626.1) (SEQ ID NO: 19) B. Cell-Free Biosynthesis Reaction with CLPP and Various Aromatic Substrates
(§2) The cyclolavandulyl diphosphate synthase, CLDS was prepared as described in Example 1 and used in the synthesis of CLPP.
(§3) Stocks of the various aromatic compounds used as substrates for cyclolavandulylation activity screening were obtained from the following commercial sources: • Resveratrol (Fisher Scientific) 200 mM stock in DMSO • Luteolin (Fisher Scientific) 200 mM stock in DMSO • Naringenin (Fisher Scientific) 200 mM stock in DMSO • Tryptamine (Fisher Scientific) 200 mM stock in DMSO • Tryptophan (Fisher Scientific) 40 mM stock in water • Olivetolic acid (Toronto Research Chemicals) 200 mM stock in DMSO • Divarinic acid (Toronto Research Chemicals) 200 mM stock in DMSO • Phorolic acid (prepared in house) 200 mM stock in DMSO • Olivetol (Fisher Scientific) 200 mM stock in DMSO • Screening for cell-free biosynthesis was carried out as follows. 10 mM DMAPP, 5 mM MgCl2, 100 mM Tris-HCl (pH=8), and 4 mg/mL CLDS (SEQ ID NO: 4) were combined in a 6.80 mL reaction, which was incubated at 28° C. for 48 hours. This mixture was aliquoted into a 96-well plate (80 μL per well). The various prenyltransferases (18 μL, ˜1 g/L final concentration) listed above were screened across various substrates (2 μL of stock solution, variable concentration shown above), which were added to the wells and incubated at 28° C. for an additional 48 hours.
(§4) Analysis of the reaction mixture was carried out as follows: 50 μL of the reaction mixture were added to 1 mL MeOH. The resulting solution was vortexed, centrifuged at 17,200 g for 5 minutes, and transferred to an HPLC vial for analysis. HRMS-QTOF analyses of the cell free reactions was performed on an Agilent Technologies 6545 Accurate Mass QTOF LC/MS with a reverse-phase column (Agilent Infinity Lab Poroshell 120 ECC18, 2.7 μm, 3.0×50 mm) using positive ESI with 1% MeCN—H2O (0.1% FA) for 2 min followed by a linear gradient of 1-99% MeCN—H2O (0.1% FA) for 14 min with a flow rate of 0.4 mL/min.
(§5) Mass spectrometric (MS) analysis of chromatograms was carried out using MassHunter Qualitative Analysis 10.0. Targeted metabolomics using the exact m/z of the calculated proton adduct [H^+] in the presence and absence of prenyltransferase indicated the presence of cyclolavandulylated product.

[2] = cell-free cyclolavandulylation activity screening of prenyltransferases, substrate naringenin
Excerpt: as §1, §2, §3, §4, §5

[3] = cell-free cyclolavandulylation activity screening of prenyltransferases, substrate resveratrol
Excerpt: as §1, §2, §3, §4, §5

[4] = cell-free cyclolavandulylation activity screening of prenyltransferases, substrate tryptophan
Excerpt: as §1, §2, §3, §4, §5

[5] = cell-free cyclolavandulylation activity screening of prenyltransferases, substrate tryptamine
Excerpt: as §1, §2, §3, §4, §5

[6] = cell-free cyclolavandulylation activity screening of prenyltransferases, substrate olivetolic acid
Excerpt: as §1, §2, §3, §4, §5

B1: SkPT: prenyltransferase, Accession: Q2L6E3.1, SEQ ID NO: 10 (protein, listed as Streptomyces sp.)
chain: MPGTDDVAVDVASVYSAIEKSAGLLDVTAAREVVWPVLTAFEDVLEQAVIAFRVATNARHEGDFDVRFTVPEEVDPYAVALSRSLIAKTDHPVGSLLSDIQQLCSVDTYGVDLGVKSGFKKVWVYFPAGEHETLARLTGLTSMPGSLAGNVDFFTRYGLADKVDVIGIDYRSRTMNVYFAAPSECFERETVLAMHRDIGLPSPSEQMFKFCENSFGLYTTLNWDTMEIERISYGVKTENPMTFFARLGTKVEHFVKNVPYGVDTQKMVYAAVTSSGEEYYKLQSYYRWRSVSRLNAAYIAARDKEST
No: presence of cyclolavandulylated product, Aromatic Compound (Substrate) Luteolin [1] | presence of cyclolavandulylated product, Aromatic Compound (Substrate) Naringenin [2] | presence of cyclolavandulylated product, Aromatic Compound (Substrate) Resveratrol [3] | presence of cyclolavandulylated product, Aromatic Compound (Substrate) Tryptophan [4] | presence of cyclolavandulylated product, Aromatic Compound (Substrate) Tryptamine [5] | presence of cyclolavandulylated product, Aromatic Compound (Substrate) Olivetolic Acid [6]

B2: CnqP3PT: prenyltransferase, Accession: WP_047018069.1, SEQ ID NO: 16 (protein, listed as Streptomyces sp.)
chain: MSGAADVERVYSAMEEAARLLDITVSREKVRPALEAYHEVLADAVVVFSMASGRYATELDFSISVPAEAGDPYRVALAKGLTPRTDHPVGRLLADTQEHCPVSMFAFDGEITGGFKKTYAFFPTNDLQSASKLAEIPSMPDSVKENADLFARYGLDKVQMTSIDYKKKAVNLYFSEMSPDILGPDTVRSMLRDMGLKETGETGLTFARRSFSVYPTLNWETGRIERLCFAVISRDPTLAPAERAEDLAKFSKYANNAPYAYAGEARTLVYGLTLTPREEYYKLGSYYQISDIQRKLLKAFDSLND
No: presence of cyclolavandulylated product, Aromatic Compound (Substrate) Luteolin [1] | presence of cyclolavandulylated product, Aromatic Compound (Substrate) Naringenin [2] | presence of cyclolavandulylated product, Aromatic Compound (Substrate) Resveratrol [3] | presence of cyclolavandulylated product, Aromatic Compound (Substrate) Tryptophan [4] | presence of cyclolavandulylated product, Aromatic Compound (Substrate) Tryptamine [5] | presence of cyclolavandulylated product, Aromatic Compound (Substrate) Olivetolic Acid [6]

B3: Mcl23PT: prenyltransferase, Accession: AGH68908.1, SEQ ID NO: 15 (protein, listed as Streptomyces sp.)
chain: MSGETDAEELCSAIEETARLVGAPCSREKIWPILTEYRSGFAEGGVVFSAQAGENHAGELDYGLAVPPRIDDPYAHALAHGFVTETDHPVAALLSDIRERCAVTEHFADCGVVGGFRKLYAHFPRDLQKVSEIADIPSMPRAVAENVGLFTRYGLENVVMVGVNYKNKTVSLYFQFTAEGRPRPSAIRSMLGDIGMTEPNERMLDFASNSFRANITLSWDSPKILRVAFAPPPGAGLNLSTVPIPTGPHLEDFVTRAPRAYDGERMNLFAVKWTQDKEFLEVCSYYQLPAGYEPIRQMEIHKEQG
No: presence of cyclolavandulylated product, Aromatic Compound (Substrate) Luteolin [1] | presence of cyclolavandulylated product, Aromatic Compound (Substrate) Naringenin [2] | presence of cyclolavandulylated product, Aromatic Compound (Substrate) Resveratrol [3] | presence of cyclolavandulylated product, Aromatic Compound (Substrate) Tryptophan [4] | presence of cyclolavandulylated product, Aromatic Compound (Substrate) Tryptamine [5] | presence of cyclolavandulylated product, Aromatic Compound (Substrate) Olivetolic Acid [6]

B4: SvPT: prenyltransferase, Accession: WP_078899560.1, SEQ ID NO: 11 (protein, listed as Streptomyces sp.)
chain: MSEASELADIYSAIEETAQLLDVPCSRDKVQPALAAFGDGLADAHIVFSMATGERYKGELAFDFTVPTAAGDPYAIALANGLVEETDHPIRTLFSDVQKRCPVDSYGVDYGIVGGFKKTYISFPLGDLQRLSALVGIPSMPRALAEHADFFASHGLDDKVSAIAIDYAHRTWNVYFSGIPAEVKEPQTLQSVLQKFGLPEPSEQLMDFIRTSFAMYTTFGWDSTKAERICFSARSSDPTALPAQFEPQIGKFAKSAPYTYTGERVLTYAGALSPSEEFYKLATFYQKTSKLSDRVRPAT
No: presence of cyclolavandulylated product, Aromatic Compound (Substrate) Luteolin [1] | presence of cyclolavandulylated product, Aromatic Compound (Substrate) Naringenin [2] | presence of cyclolavandulylated product, Aromatic Compound (Substrate) Resveratrol [3] | presence of cyclolavandulylated product, Aromatic Compound (Substrate) Tryptophan [4] | presence of cyclolavandulylated product, Aromatic Compound (Substrate) Tryptamine [5] | presence of cyclolavandulylated product, Aromatic Compound (Substrate) Olivetolic Acid [6]

B5: Sr1310PT: prenyltransferase, Accession: WP_057602682.1, SEQ ID NO: 12 (protein, listed as Streptomyces sp.)
chain: MSGAADVERVYAAMEEAAGLLDVSCAREKIYPLLTVFQDTLTDGVVVFSMASGRRSTELDFSISVPVSQGDPYATVVKEGLFQATGSPVDELLADTVAHLPVSMFAIDGEVTGGFKKTYAFFPTDDMPGVAQLAAIPSMPASVAENAELFARYGLDKVQMTSMDYKKRQVNLYFSDLKQEYLQPESVVALARELGLRVPGELGLEFCKRSFAVYPTLNWDTGKIDRLCFAAISTDPTLVPSEDERDIEMFRNYATKAPYAYVGEKRTLVYGLTLSSTEEYYKLGAYYHITDIQRQLLKAFDALED
No: presence of cyclolavandulylated product, Aromatic Compound (Substrate) Luteolin [1] | presence of cyclolavandulylated product, Aromatic Compound (Substrate) Naringenin [2] | presence of cyclolavandulylated product, Aromatic Compound (Substrate) Resveratrol [3] | presence of cyclolavandulylated product, Aromatic Compound (Substrate) Tryptophan [4] | presence of cyclolavandulylated product, Aromatic Compound (Substrate) Tryptamine [5] | presence of cyclolavandulylated product, Aromatic Compound (Substrate) Olivetolic Acid [6]

B6: NapT8: prenyltransferase, Accession: ABS50461.1, SEQ ID NO: 13 (protein, listed as Streptomyces aculeolatus)
chain: MEGLYAAIEEASGLLDVAPSRDKVWPILSAYELDKVVVAFRVTTRGSKDLDCRFTALPADVNPYRYAVSKGIAEATDHPVGTLLDDVQANIPVTAHGVDFGVVEGFRKTWTFLPGNDLQKLSKVAALPSMPPSLAENLDFYARYGLDDKNSMIGIDYPSRTVNVYFLQFPDETREPETVRAMLRDLGLPEPSEQMLTLAKQAVGIYTTLTWDSPKIQRITFATLVPDAEALPGRIAVEPSVEKFARNVPHTYPGPVQGLYNVASYSGGEYFKLQTYHQLAEGSLEARVLLGAAGAGS
No: presence of cyclolavandulylated product, Aromatic Compound (Substrate) Luteolin [1] | presence of cyclolavandulylated product, Aromatic Compound (Substrate) Naringenin [2] | presence of cyclolavandulylated product, Aromatic Compound (Substrate) Resveratrol [3] | presence of cyclolavandulylated product, Aromatic Compound (Substrate) Tryptophan [4] | presence of cyclolavandulylated product, Aromatic Compound (Substrate) Tryptamine [5] | presence of cyclolavandulylated product, Aromatic Compound (Substrate) Olivetolic Acid [6]
